Results published in article PMC7104183 (Cell Reports, 2018).

Biological target: ectodomain of human DPP4 (residues 39-766) (human, UniProt P27487 39-766)
Test: SPR

B1: MERS-CoV RBD (residues 367-588) (domain or fragment)
chain: EAKPSGSVVEQAEGVECDFSPLLSGTPPQVYNFKRLVFTNCNYNLTKLLSLFSVNDFTCSQISPAAIASNCYSSLILDYFSYPLSMKSDLSVSSAGPISQFNYKQSFSNPTCLILATVPHNLTTITKPLKYSYINKCSRFLSDDRTEVPQLVNANQYSPCVSIVPSTVWEDGDYYRKQLSPLEGGGWLVASGSTVAMTEQLQMGFGITVQYGTDTNSVCPKL
B1: binds.
